Results taken from patent US20240218342A1, “SITE-SPECIFIC GLYCAN REMODELING OF LYSOSOMAL ENZYMES AND APPLICATIONS THEREOF” (priority 2021, published 2024).

Biological target: Recombinant human IGF-II R (CI-MPR) (Homo sapiens, UniProt P11717)
Assay: SPR binding to immobilized CI-MPR
Settings: 25° C., three independent experiments
Description: Surface Plasmon Resonance (SPR) Measurements. SPR measurements were performed on a Biacore T200 instrument (GE Healthcare). Recombinant human IGF-II R (CI-MPR) was purchased from R&D Systems. Approximately 7000 resonance units (RU) of CI-MPR was immobilized on a CM5 sensor chip in a sodium acetate buffer (25 μg/mL, pH 4.0) at 25° C., using the amine coupling kit provided by the manufacturer. Mannose 6-phosphates containing glycopeptides or glycoproteins were determined at 25° C. under a flow rate of 10 μL/min. HBS-P+ buffer (10 mM HEPES, 150 mM NaCl, 0.05% surfactant P20, pH 7.4) was used as sample buffer and running buffer. Association was measured for 3 min and dissociation for 10 min at the same flow rate (10 μL/min). […] Synthetic glycopeptide and glycoprotein analytes flowed over an immobilized chip with 2-fold serial dilution of the highest concentration of 4 μM (for glycopeptides) or 1 μM (for RNase B) or 250 nM (for rhGAA). Kinetic analyses were performed by global fitting of the binding data to a 1:1 Langmuir binding model using BIAcore T200 evaluation software.

Recombinant human IGF-II R (CI-MPR), sequence (P11717 41-2491): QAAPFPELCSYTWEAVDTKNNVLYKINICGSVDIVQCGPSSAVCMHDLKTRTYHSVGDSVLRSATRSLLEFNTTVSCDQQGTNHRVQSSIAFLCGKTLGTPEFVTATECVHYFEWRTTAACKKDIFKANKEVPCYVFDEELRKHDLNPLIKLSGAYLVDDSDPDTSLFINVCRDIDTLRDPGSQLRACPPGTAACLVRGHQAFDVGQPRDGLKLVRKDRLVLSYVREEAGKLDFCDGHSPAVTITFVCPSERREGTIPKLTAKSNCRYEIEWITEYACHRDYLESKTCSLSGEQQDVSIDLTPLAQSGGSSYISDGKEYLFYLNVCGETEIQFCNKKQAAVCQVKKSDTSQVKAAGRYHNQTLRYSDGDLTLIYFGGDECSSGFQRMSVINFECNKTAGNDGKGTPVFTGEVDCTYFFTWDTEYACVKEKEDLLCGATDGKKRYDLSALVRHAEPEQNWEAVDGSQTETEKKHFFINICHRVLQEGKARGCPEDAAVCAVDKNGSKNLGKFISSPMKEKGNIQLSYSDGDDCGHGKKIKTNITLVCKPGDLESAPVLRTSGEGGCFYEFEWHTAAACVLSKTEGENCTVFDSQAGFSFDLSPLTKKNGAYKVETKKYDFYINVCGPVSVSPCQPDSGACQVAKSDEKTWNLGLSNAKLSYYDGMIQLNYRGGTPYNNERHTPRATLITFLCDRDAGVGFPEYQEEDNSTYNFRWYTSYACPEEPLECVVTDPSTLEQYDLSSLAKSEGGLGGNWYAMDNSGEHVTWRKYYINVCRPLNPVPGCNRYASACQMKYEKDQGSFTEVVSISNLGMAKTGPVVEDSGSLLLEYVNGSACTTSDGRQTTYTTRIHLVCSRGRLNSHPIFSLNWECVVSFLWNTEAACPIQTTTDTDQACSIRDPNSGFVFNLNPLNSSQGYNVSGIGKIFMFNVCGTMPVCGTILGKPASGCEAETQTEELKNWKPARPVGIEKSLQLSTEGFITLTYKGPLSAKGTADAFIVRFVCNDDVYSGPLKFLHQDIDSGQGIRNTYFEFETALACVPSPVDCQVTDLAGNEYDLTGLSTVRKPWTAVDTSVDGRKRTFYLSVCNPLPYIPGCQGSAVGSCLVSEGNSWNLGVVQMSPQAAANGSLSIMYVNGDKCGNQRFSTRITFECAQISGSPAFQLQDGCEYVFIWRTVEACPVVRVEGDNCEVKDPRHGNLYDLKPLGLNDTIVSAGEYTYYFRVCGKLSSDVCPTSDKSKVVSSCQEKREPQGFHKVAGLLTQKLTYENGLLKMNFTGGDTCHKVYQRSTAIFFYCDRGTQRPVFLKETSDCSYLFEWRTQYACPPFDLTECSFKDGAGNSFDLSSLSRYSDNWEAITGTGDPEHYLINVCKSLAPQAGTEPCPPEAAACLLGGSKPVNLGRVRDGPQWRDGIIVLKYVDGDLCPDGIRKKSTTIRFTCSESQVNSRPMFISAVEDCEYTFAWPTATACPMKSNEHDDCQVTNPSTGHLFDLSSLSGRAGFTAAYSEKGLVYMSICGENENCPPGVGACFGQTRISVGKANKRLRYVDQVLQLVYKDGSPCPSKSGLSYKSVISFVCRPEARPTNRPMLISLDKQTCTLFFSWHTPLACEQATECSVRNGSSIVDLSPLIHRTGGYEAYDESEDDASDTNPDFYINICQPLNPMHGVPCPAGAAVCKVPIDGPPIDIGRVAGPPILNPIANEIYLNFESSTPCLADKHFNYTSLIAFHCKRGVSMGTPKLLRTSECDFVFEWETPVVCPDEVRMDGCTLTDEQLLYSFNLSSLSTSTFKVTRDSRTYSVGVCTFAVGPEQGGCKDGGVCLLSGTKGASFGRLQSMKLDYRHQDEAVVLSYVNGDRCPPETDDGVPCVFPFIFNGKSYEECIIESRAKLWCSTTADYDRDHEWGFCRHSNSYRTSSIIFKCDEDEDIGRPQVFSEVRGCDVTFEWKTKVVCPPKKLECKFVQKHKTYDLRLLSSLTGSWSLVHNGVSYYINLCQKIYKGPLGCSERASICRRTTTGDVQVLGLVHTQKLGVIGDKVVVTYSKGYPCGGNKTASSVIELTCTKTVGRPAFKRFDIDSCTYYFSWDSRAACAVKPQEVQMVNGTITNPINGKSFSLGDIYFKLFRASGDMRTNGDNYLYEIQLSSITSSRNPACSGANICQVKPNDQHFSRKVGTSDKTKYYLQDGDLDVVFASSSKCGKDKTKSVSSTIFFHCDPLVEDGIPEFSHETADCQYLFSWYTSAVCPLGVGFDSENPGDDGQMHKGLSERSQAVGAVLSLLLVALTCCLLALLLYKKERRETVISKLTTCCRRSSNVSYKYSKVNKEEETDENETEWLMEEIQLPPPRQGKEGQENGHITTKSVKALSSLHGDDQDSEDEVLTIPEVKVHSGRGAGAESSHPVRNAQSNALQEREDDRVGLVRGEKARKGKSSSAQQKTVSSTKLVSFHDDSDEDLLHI

- Kd: 15.8 nM
B1: Glycoprotein 68: phosphorylated glycoprotein from GlcNAc-RNase B and oxazoline 8 under wild-type Endo-A catalysis (protein)
chain: KETAAAKFERQHMDSSTSAASSSNYCNQMMKSRNLTKDRCKPVNTFVHESLADVQAVCSQKNVACKNGQTNCYQSYSTMSITDCRETGSSKYPNCAYKTTQANKHIIVACEGNPYVPVHFDASV
modifications: Asn-34 carries GlcNAc extended with M6P tetrasaccharide oxazoline 8 (Man6P-α1,2-Man-α1,3-Man-β1,4-GlcNAc)
